This note sets out measurements from article PMC3814758, “The Geminin and Idas Coiled Coils Preferentially Form a Heterodimer That Inhibits Geminin Function in DNA Replication Licensing*” (The Journal of Biological Chemistry, 2013).

For data set [1], the target named is Cdt1 (115-353) (UniProt Q9H211).
The target is the same in data set [2]. Description: ITC; 25 °C; 25 mM HEPES/NaOH pH 7.5, 150 mM NaCl, 0.5 mM Tris(2-carboxyethyl)phosphine; 28 injections of 10 μl of the protein dimers (2-80 μM) into 1.4 ml of Cdt1 (0.2-10 μM).
The target of data set [3] is T1, Cdt1 (115-353) (UniProt Q9H211 115-353).
T1 chain: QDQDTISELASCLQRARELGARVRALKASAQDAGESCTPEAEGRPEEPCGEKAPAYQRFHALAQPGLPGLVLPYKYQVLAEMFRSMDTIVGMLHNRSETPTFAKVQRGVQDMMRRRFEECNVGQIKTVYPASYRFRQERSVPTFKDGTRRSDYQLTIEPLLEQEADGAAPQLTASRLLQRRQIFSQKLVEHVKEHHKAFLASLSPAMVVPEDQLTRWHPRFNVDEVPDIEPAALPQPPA
Kind of data set: ITC.

Data set [4] deals with the molecule itself. Description: SAXS; purified complexes at three concentrations each (0.5, 1.0, 2.5 mg/ml tGeminin-tGeminin; 1.0, 2.0, 6.0 mg/ml tIdas-tIdas and tIdas-tGeminin); X13 beamline, EMBL-Hamburg; Guinier plot and distance distribution.
For data set [5], the target named is T2, Cdt1 (115-353) (UniProt Q9H211 115-353).
T2 sequence (looked up): T1 chain
Description: cell-based or functional assay.

The target in data set [6] is T2, Cdt1 (115-353). Kind of data set: ITC; 25 °C; 25 mM HEPES/NaOH pH 7.5, 150 mM NaCl, 0.5 mM Tris(2-carboxyethyl)phosphine; 28 injections of 10 μl of the protein dimers (2-80 μM) into 1.4 ml of Cdt1 (0.2-10 μM). To be noted: both partners purified.

B1: tGeminin-tGeminin homodimer (complex)
chain: TQESFDLMIKENPSSQYWKEVAEKRRKALYEALKENEKLHKEIEQKDNEIARLKKENKELAEVAEHVQYMAELIERLNG
B1: the IC50 of inhibition of replication licensing and DNA replication of sperm DNA in Xenopus egg extract (Cdt1 of the extract), increasing concentrations of the dimer with Cdt1 (115-353) [1] turned out to be 50 nM. Further, the dissociation constant (Kd) amounted to 3.5 nM with Cdt1 (115-353) [2] and 2.6 nM with Cdt1 (115-353) [3].

B2: tGeminin, coiled-coil domain of Geminin (residues 82-160) (domain or fragment, human, UniProt O75496 82-160, looked up)
chain: B1 chain
notes: Geminin, human, residues 82-160 (coiled-coil construct tGeminin); Single chain, used for the rows of tGeminin with itself and with tIdas; Cloned both with a cleavable His tag and without tag; In the co-expressed complex the tag was on Idas; source: expressed on its own, or co-expressed with Idas in Escherichia coli; purified
On to B2, for which the “stoichiometry N” value in data set [4] was determined as 2.

B3: tIdas-tGeminin heterodimer (complex)
chain 1: PDVPPPEQYWKEVADQNQRALGDALVENNQLHVTLTQKQEEIASLKERNVQLKELASRTRHLASVLDKLMITQ
chain 2: B1 chain
notes: Idas (Multicilin), residues 173-245; Geminin, human, residues 82-160; Preformed heterodimer; also called tGeminin-tIdas; Idas-Geminin heterodimer; source: co-expression in Escherichia coli, purified (IMAC by the His tag on Idas, size exclusion chromatography); copies: 1 + 1
On to B3, for which the “IC50 of inhibition of replication licensing and DNA replication of sperm DNA in Xenopus egg extract (Cdt1 of the extract), increasing concentrations of the dimer” value in the data set with Cdt1 (115-353) [5] was about 720 nM. In the data set with Cdt1 (115-353) [6], the Kd is about 35 nM and the “dH less favourable than for tGeminin-tGeminin binding to Cdt1” value stood at 21.1 kcal/mol.

B4: tIdas, coiled-coil domain of Idas (residues 173-245) (domain or fragment, UniProt D6RGH6 173-245, looked up)
chain: B3 chain 1
notes: Idas (Multicilin), residues 173-245 (coiled-coil construct tIdas); Single chain, used for the rows of tIdas with itself and with tGeminin; Cleavable His tag; also called Multicilin; source: expressed on its own, or co-expressed with Geminin in Escherichia coli; purified
As for B4, the “stoichiometry N” value in data set [4] worked out at 2.
